Experiment [1] deals with T1, sly1^E138K, Gal4 DNA-binding domain fusion (Arabidopsis thaliana, UniProt Q9STX3 1-151, E138K).
T1 sequence: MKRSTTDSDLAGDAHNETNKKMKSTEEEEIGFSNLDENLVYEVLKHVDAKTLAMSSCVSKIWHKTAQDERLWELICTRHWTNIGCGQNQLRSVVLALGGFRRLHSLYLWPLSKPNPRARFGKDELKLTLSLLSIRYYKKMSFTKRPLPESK
Description: yeast three-hybrid.

Experiment [2] deals with T2, MBP–GID1A (GIBBERELLIC ACID-… DWARF-1A, MBP fusion) (Arabidopsis thaliana, UniProt Q9MAA7 1-345).
T2 sequence: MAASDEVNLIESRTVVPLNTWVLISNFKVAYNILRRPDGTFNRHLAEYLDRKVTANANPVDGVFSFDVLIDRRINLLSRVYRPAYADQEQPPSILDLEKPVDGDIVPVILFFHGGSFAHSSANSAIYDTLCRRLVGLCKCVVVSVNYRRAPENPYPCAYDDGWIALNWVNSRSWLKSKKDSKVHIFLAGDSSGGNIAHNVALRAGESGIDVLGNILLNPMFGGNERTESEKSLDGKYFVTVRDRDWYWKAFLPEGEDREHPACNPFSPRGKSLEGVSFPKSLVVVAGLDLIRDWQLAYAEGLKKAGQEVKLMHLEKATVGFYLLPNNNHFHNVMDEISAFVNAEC
The experiment in a line: SPR. A general note: SPR reads the build-up and loss of mass on a sensor chip optically.

Values joined by “and” are separate entries in the source; they are usually repeats but may differ in a detail not shown here. Equal values may be shown once.

B1: RGL1 (REPRESSOR OF GA1-3-LIKE 1), Gal4 activation domain fusion (natural protein)
chain: MKREHNHRESSAGEGGSSSMTTVIKEEAAGVDELLVVLGYKVRSSDMADVAHKLEQLEMVLGDGISNLSDETVHYNPSDLSGWVESMLSDLDPTRIQEKPDSEYDLRAIPGSAVYPRDEHVTRRSKRTRIESELSSTRSVVVLDSQETGVRLVHALLACAEAVQQNNLKLADALVKHVGLLASSQAGAMRKVATYFAEGLARRIYRIYPRDDVALSSFSDTLQIHFYESCPYLKFAHFTANQAILEVFATAEKVHVIDLGLNHGLQWPALIQALALRPNGPPDFRLTGIGYSLTDIQEVGWKLGQLASTIGVNFEFKSIALNNLSDLKPEMLDIRPGLESVAVNSVFELHRLLAHPGSIDKFLSTIKSIRPDIMTVVEQEANHNGTVFLDRFTESLHYYSSLFDSLEGPPSQDRVMSELFLGRQILNLVACEGEDRVERHETLNQWRNRFGLGGFKPVSIGSNAYKQASMLLALYAGADGYNVEENEGCLLLGWQTRPLIATSAWRINRVE
B1: in experiment [1], the “fold recruitment against the ΔDELLA mutant in the presence of GID1A/GA3” value was 4 fold.

B2: MBP–RGL1^N (RGL1^1–137, N-terminal or DELLA domain of RGL1, MBP fusion) (domain or fragment)
chain: MKREHNHRESSAGEGGSSSMTTVIKEEAAGVDELLVVLGYKVRSSDMADVAHKLEQLEMVLGDGISNLSDETVHYNPSDLSGWVESMLSDLDPTRIQEKPDSEYDLRAIPGSAVYPRDEHVTRRSKRTRIESELSST
Consider B2, for which, in experiment [2], the Ka was 5.73e+08 M⁻¹ and 3.58e+08 M⁻¹ and 6.49e+08 M⁻¹.
